Measurements taken from the DeepSol protein solubility set.

Experiment: soluble on expression in E. coli; label from the status in PepcDB or PDB records

Row | Sequence | soluble on expression in E. coli
1 | DQQYVKNFLLLVKSDNPEEQAAATETSIPRKLREMRMASTIDSTLSKDDILTRYLNLVHLGNGAFGVEAAARTYFGKGAPELSLAQSAMFAGIVQSSSYLDPYTNPDAVMDRRNVVLDTMAANGYATPEDVAAAKAEPLGVLEQPQGLPNGCITAGDNGFFCDYVLKYLSEKGLSTDQLTQGSYTINTTLDPDVQQAAHAAAAGQVNSHTFGVANVMNIVEPGKDSRKILAMTSSRDYGLDLDAGQTVLPQPTSLVGNGAGSVFKIFTAAVALQQGYGLDTQLQVPPRYEAKGMGDGGAEGCGAGTYCVENSGSYAPQMSLRDALAFSPNTPFVQMIEKVGVKDVVDTSVKLGLRSYANPGTFNKDNSIADYVKEHNLGSYTLGPTAVNPLELSNVAASLASDGMWCEPSPITTVTDAKGNEVFLDRPACEQAIDPEIAQALSAGLSQDTIKGTGAQAAKSLGFSAPTAAKTGTTESHSS | not soluble
2 | QEGYPFPSFHLRGTHPYRSILVSANTEALSPLLASAMDLARIFGSEVYVLFVSRVEAFMPPEEKELLENLKVLVERARKTSGLEVHLIRKEGNPVRETLRLLKGKFNLLALGYTPGRRTAFFRPYVPQLLAQASPVSTLLVPEVNLER | not soluble
3 | SPPIGNQLGALVHQRTVITEEFKVPDKMVGFIIGRGGEQISRIQAESGCKIQIASESSGIPERPCVLTGTPESIEQAKRLLGQIVDRCRNGPGFHNDIDSNSTIQEILIPASKVGLVIGRGGETIKQLQERTGVKMVMIQDGPLPTGADKPLRITGDAFKVQQAREMVLEIIREKDQADFRGVRGDFNSRMGGGSIEVSVPRFAVGIVIGRNGEMIKKIQNDAGVRIQFKPDDGISPEYYRQQVAFYGQTLGQAQAHSQEQ | soluble
4 | MLGRTDISTFPRLKLGFWGEVTLTFPAVCDAAEIVLPANWADMSVAANNDNAAINTNNVNFLHISSYIRILVTTIPLRCGKTRDNPH | not soluble
5 | MSLVIRRLYQFCASHVVRNCSSLKCAQNIHGHNYEVEVFIETNRLDNANMALDFGLMQQEMQVFIESFDHAHHFWDKESLEFQRFIENHCVRYVKCSFNLSAESYALMFLYYLTKILQKSVFSNDEGELKVSSVRVHETKNGYAESFLKDEGHHHHHH | soluble
6 | MQAEKLAYYPFTSEASAYVGNLGISLESLLNSRAYRAARARGIERVKEALEGEIKKSPVSGEAQVLSELLSYPFARMLVACVDDQLFTRRYALAEAKAAYTFLRNENPDFLLEFGDDFGISADSQDSYFSMHFTDYIRFSNSLKDPSWKLTNRQLRAGKIKITKEEFSRLLEEAVRERIEQSFPVPEIPPEVSSFCSPYAAEIKDKFEVQKKKFGSTDFGAVKPELFPPCIAYALANVQGGVNLAHSMRFAMTSFLLNVGMSVDEILNLFNISPDFNAEKTLYQIEHIAGATGNTYKPPACDTMRTYGNCVGKDRLCEKISHPLGYYEKKVFIKNKEGEEAQGKEQGKEKDDGKEKENGKESEVKKKKEKLEHHHHHH | soluble
7 | MSLQAELVIKNGLVILETGEVITDVAVQGGKIVAIGQDLSGERVIDATGLVVSPGMVDAHVHITDPGGGYRDEWEGYVTGTAACAKGGVTTFMEMPLNQIPATVDKTSLEIKYKAGENKLKVDVGSFGGVVPTNLADGIQELDEGGVSGYKCFLGTCGDRSIEGDFQNVDDYSLYEGMKQVAKTGKVLAIHAENAPITDKLGAVAYQNGETTLAAYVATRPVFTEVEAIQKAILFAKETGCRIHICHVACQEGVEEVLKAQAEGVDVTCETCTHYLYFTTDELDAIGPVVKCSPPIRDADQQAALWNHVQTGGIAFVTSDHSPCTPDLKDTTNAFEAWGGISGVQNNVDVLFDEAVQKRGLSLKQFADMIAANPADRYHLAQKGRISIGKDADFVLIKPNAPYILKAEDLEYRNKISPYIGREIGAQVIQTILRGETIYAQETGVTEAFNGVFIKNEGHHHHHH | soluble
8 | MGGLFVTPAKAVKTTNYAEEIAALQPGTTPEEIMKSASQIAKQQHVKQDVILKQFYKEITADKAEGDRLAKESGMSIMGGSSGTKKLPTSAKGNIYYTNSYTAYYNHGHVGMYSAADKIVESVPSDGVRQIAYNARDVEDNSIVQTVSVSSSQKTAAADWAVSKVGDPYSFNFVNNRNTGHDGAKNCSKLLWSAFLLKAGIDIDSNGGLGVYPRDITSSSYTTTIMTIYLEHHHHHH | not soluble
9 | AIAVHRDPAEELWCELWQPGVDITRKMNAIFGLKEIGTERAVTLLCAALLDARERSVLVRHEIAYVLGQIQSAASIKTLTDRLIDTDENSIVRHECGEALGAVRAFAVRPILQKLCGDAVPEVRETCVLALERLRWLEEKSTNEERVRETSAKAFKLFETVDPAPAFVAPDDLEASWSNAELGELLLNENEPLFRRYRALFTLRDRNTDDTAGVIAAALRRDTSSALFRHEVAYVLGQMSRACTLPALESALADTHEHAMVRHEAAEAIGAIGNSSACDILRRFLRDANVIVRESCQVALDIAGISDDCQFMD | soluble
10 | MPEDLALESNPSDHPRASTIFLSKSQTDVREKRKSNHLNHCDLSNILPHKEQREKVPEEYFKHDPEHKFIYRFVRTLFSAAQLTAECAIVTLVYLERLLTYAEIDICPTNWKRIVLGAILLASKVWDDQAVWNVDYCQILKDITVEDMNEMERHFLELLQFNINVPASVYAKYYFDLRSLADDNNLNFLFAPLSKERAQNLEAISRLCEDKDLCRAAMRRSFSADNFIGIQRSKAILS | not soluble
11 | MGSDKIHHHHHHMTKEQNSTENLDFQSPSDDTNLEGDFTADIVALAAKVEVQIQKIAERQRQISAKVQIPQPVEKIWKVLTDYEALPDFLPNLAKSRLIEHPNGGIRLEQVGSQRLLNFNFSARVVLDLEECFPREINFRMVEGDFKGFSGSWCLEPYSLGEYIGTNLCYTIQVWPKLTMPVGIIENRLSKDLRLNLVAIHQRVEELANKQPYI | not soluble
12 | MKTTKFNIENLDLFYGENQALKSINLPIPTRQVTALIGPSGCGKSTLLRCLNRMNDLIEGVTITGKLTMDGQDVYGNIDVSDLRIRVGMVFQKPNPFPMSIYENVAYGLRAQGIKDKKHLDEVVERSLRGAALWDEVKDRLKSHAFGLSGGQQQRLCIARTIAMEPDVILMDEPTSALDPIATHKIEELMEDLKKNYTIVIVTHSMQQARRISDRTAFFLMGELVEHDDTQVIFSNPRDDRTRGYVNGDFG | not soluble
13 | MSFGLVGTVNNNGWKSPFRHETKYRAGYDKFKYYKTHYRGAKKAGTNDDRWRWTAWFDLDFAHQKIVLIERGELHRQADLKKSDPATNETSKTVWGSIKEKLLQNVNNLHSEKGVFLWFRQSGFTTTRN | soluble
14 | MLWGRREFVMREEDTVCVGSDGLQYCKVCGEAKEAFFPEGGFMGMKKHSRQCACDRKAYEEEQKYFKDKEHRELVSRNTSICFDESRMEEWTFENADMSDAVMHKAKSYVDNWEEMKRNHIGCLFWGPVGTGKSFIAGCIANELLKQEVTVKMTNFNTIIDDIFPLADKTEYINALASYQLLIIDDLGVERNSEYALGIIFSVIDRRIRSGRPLIITTNLPLNEIKSETMLDKRRIYDRILEMCTPMYVGGASKREAIASMKMEKAKTLLNTNKGEE | not soluble
15 | MSLGEVAPTLAAYDLQGEAVALEQWEGKLVYLNFWSVNCGGCLAEMATLNQLSQEYQDQAVVVAINTDPEQVEIAPVLAQHNINYPVIRDQLGITQERYQVIGTPTSFLIDRNGKVIEWHQGVRNEQELTALFKQKVSEKEGHHHHHH | not soluble
